The results in this text go back to patent publication US5736363A, “IGF-II analogues” (British Bio-technology Limited, priority 1991, dated 1998).

One assay has as its target T1, type 1 IGF receptor (Mus musculus, UniProt Q60751).
T1 construct: endogenous in cells; host or cells: Swiss mouse 3T3 cells
Put plainly: Type 1 IGF receptor binding assay on Swiss mouse 3T3 cells. Particulars: for IC50, inhibits binding of 125I-IGF-II (type 1 IGF receptor): mutant value holds for material from either secretion or refolding route. On the procedure: Swiss 3T3 cells at 5×10^4 cells/ml were seeded into 24 well plates at 5×10^3 cells/well in DMEM containing 10% FCS and incubated at 37°. The cells were used for assay after 5-6 days. For the binding assay, the growth medium was flicked out of the plate, and the cells washed twice with binding medium (serum free DMEM containing 25 mM HEPES, 1 mg/ml BSA and 2 mM glutamine). A further 400 μl of binding medium was added to each well along with 50 μl of sample or IGF-II standard (Bachem). Twofold dilutions of IGF-II were used for the standard curve to give final concentrations in the well from 300-1.56 ng/ml. […] The plate was incubated at room temperature for 2 hr., the assay medium removed and the cells washed four limes in PBS containing 1 mg/ml BSA and 0.1 μM KI. The plates were blotted dry and the cells solubilised for by the addition of 750 μl 0.5M NaOH containing 0.2% w/v Triton X100. After 15 min the lysed samples were transferred to tubes and the residual counts determined using a gamma counter.

The target in another assay is T2, type 2 IGF receptor (Rattus norvegicus, UniProt G3V824).
T2 construct: endogenous in cells; host or cells: H35 (rat hepatoma) cells
The assay can be described thus: Type 2 IGF receptor binding assay on H35 (rat hepatoma) cells. As for the experimental part:
Binding to the type 2 IGF receptor was assessed on H35 (rat hepatoma) cells, see FIG. 11. Cells at 5×10^5 cells/ml were seeded into 24 well plates at 5×10^4 cells/well in DMEM containing 0.5% FCS and incubated at 37°. The cells were used for assay after 2-3 days. For the binding assay, the growth medium was flicked out of the plate, and the cells washed once with binding medium (serum free DMEM containing 25 mM HEPES, 1 mg/ml BSA and 2 mM glutamine).
A further 400 μl of binding medium was added to each well along with 50 μl of sample or IGF-II standard (Bachem). Twofold dilutions of IGF-II were used for the standard curve to give final concentrations in the well from 300-1.56 ng/ml. Labelled IGF-II was then added (50 μl of […]) to give a final concentration of 2 ng/ml and a total of about 40,000 dpm per well. The plate was incubated at room temperature for 3 hr., the assay medium removed and the cells washed four times in Hanks buffered salt solution containing 1 mg/ml BSA. The plates were blotted dry and the cells solubilised for by the addition of 750 μl 10 mM Tris HCl, 5 mM EDTA, 0.2% w/v SDS. After 15 min the lysed samples were transferred to tubes and the residual counts determined using a gamma counter.

In another assay the target is T3, insulin receptor (Rattus norvegicus, UniProt P15127).
T3 construct: endogenous in cells; host or cells: H35 (rat hepatoma) cells
Put plainly: Insulin receptor binding assay on H35 cells.

Setting [1] is: refolded material (HRP fusion route).

T2 sequence (G3V824 36-2481): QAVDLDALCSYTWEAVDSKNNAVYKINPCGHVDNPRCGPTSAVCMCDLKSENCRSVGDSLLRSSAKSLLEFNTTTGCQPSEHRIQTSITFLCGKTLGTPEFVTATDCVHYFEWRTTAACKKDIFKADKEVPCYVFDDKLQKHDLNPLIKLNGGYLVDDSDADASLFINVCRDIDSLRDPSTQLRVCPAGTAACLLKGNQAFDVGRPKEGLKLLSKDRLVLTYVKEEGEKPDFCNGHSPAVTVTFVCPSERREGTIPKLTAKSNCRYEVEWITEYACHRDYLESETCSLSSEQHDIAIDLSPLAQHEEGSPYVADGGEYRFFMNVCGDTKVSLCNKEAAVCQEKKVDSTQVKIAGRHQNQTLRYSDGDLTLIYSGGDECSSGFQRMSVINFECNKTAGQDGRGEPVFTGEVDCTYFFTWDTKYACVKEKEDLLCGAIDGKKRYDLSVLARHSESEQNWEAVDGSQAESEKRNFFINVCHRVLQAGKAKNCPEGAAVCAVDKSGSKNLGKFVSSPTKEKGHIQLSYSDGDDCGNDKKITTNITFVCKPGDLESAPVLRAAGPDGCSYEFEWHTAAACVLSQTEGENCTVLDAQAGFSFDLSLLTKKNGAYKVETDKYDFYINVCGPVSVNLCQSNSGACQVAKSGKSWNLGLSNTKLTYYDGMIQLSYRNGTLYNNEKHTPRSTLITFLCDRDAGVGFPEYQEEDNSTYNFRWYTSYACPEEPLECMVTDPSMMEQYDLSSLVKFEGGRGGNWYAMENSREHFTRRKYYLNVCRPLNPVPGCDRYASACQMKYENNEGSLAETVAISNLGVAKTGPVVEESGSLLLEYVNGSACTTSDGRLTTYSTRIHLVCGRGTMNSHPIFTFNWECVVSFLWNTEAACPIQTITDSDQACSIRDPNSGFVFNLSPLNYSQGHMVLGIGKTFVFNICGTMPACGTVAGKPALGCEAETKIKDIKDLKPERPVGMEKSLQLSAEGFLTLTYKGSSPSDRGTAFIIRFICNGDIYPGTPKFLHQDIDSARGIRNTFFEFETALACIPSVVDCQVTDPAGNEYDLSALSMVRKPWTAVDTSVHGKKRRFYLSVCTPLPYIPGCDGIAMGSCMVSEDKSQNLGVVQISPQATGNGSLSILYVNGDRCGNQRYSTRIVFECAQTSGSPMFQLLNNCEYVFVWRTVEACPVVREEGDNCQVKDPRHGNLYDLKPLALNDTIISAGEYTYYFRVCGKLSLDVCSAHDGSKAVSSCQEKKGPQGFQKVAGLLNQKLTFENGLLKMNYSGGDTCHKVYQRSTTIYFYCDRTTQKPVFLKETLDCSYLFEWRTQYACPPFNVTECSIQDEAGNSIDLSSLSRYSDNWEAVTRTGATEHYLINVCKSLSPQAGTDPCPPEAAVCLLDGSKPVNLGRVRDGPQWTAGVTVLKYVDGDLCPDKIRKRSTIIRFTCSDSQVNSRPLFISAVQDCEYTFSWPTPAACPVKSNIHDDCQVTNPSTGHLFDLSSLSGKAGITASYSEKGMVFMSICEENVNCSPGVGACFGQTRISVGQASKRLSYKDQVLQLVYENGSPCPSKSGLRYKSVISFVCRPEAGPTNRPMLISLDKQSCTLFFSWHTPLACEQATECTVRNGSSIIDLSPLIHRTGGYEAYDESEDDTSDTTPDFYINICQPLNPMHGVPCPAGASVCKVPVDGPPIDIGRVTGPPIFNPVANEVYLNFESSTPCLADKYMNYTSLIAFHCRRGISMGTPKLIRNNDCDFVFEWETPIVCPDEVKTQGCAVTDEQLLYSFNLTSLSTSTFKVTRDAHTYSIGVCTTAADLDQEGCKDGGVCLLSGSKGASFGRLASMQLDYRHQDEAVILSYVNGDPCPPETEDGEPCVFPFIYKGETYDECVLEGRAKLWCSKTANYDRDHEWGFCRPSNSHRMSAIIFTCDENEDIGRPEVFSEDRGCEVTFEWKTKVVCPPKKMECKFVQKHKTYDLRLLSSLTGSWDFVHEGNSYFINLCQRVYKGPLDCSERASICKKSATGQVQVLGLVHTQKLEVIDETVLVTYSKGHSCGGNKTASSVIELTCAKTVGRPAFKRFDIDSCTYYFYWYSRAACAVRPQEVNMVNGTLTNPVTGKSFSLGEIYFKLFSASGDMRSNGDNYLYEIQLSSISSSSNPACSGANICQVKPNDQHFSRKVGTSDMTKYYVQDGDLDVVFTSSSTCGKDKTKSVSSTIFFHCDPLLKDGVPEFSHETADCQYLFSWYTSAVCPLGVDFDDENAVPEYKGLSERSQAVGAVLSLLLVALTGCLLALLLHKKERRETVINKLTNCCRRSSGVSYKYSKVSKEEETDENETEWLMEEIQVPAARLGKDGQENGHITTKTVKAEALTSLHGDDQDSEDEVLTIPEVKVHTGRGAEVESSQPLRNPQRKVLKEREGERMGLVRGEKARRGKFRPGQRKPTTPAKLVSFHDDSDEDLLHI
T1 sequence (Q60751 31-737 limits assumed): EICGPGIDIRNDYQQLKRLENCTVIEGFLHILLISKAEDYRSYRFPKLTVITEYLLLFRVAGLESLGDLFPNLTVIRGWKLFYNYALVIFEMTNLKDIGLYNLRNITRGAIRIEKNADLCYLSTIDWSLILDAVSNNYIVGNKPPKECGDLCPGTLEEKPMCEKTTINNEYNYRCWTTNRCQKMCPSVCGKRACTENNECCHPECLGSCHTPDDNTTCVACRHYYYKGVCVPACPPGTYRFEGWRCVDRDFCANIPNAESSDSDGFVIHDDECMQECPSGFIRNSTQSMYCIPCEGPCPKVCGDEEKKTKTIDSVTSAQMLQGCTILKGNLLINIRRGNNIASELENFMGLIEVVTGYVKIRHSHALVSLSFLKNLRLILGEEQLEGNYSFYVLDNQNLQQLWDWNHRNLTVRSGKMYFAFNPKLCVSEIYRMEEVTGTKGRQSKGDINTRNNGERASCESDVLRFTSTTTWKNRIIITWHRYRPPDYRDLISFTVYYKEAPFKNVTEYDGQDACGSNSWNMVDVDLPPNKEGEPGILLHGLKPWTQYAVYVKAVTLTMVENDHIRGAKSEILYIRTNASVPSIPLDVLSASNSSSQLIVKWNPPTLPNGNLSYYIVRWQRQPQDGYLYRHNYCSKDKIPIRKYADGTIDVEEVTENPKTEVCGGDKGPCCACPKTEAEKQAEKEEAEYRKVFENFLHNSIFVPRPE
T1 sequence (Q60751 742-1373 partner limits assumed): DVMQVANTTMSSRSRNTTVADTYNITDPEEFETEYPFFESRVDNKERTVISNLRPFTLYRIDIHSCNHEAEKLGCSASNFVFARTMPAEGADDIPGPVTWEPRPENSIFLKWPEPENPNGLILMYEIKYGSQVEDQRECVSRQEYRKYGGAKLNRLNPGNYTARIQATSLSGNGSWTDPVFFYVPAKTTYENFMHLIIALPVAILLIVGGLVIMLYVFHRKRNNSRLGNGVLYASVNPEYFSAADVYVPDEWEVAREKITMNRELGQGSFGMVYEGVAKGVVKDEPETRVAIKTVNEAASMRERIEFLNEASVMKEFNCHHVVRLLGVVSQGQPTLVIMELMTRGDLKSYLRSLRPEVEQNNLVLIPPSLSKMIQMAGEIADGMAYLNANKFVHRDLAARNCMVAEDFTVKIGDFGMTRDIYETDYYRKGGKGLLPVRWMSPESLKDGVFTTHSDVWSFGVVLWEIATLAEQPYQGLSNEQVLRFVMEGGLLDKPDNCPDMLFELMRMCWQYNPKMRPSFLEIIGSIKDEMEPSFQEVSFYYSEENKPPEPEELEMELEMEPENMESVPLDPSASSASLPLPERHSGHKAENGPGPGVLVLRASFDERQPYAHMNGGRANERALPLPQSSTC

Consider “wild-type standard (Bachem): recombinant IGF-II from a commercial supplier (Bachem) used as a reference standard [reference compound]”, for which the “IC50, inhibits binding of 125I-IGF-II (type 1 IGF receptor)” value with type 1 IGF receptor was 0.06 µg/mL. Besides, the “IC50, inhibits binding of 125I-IGF-II (type 2 IGF receptor)” value with type 2 IGF receptor (commercial reference standard (Bachem)) was 0.018 µg/mL.

Regarding “IGF-II (Q^37 Q^38): IGF-II with the modifications Arg37Gln and Arg38Gln”, in the assay with type 1 IGF receptor, the “affinity for the type 1 IGF receptor versus native IGF-II” value is “comparable to native IGF-II”. Moreover, in the assay with type 1 IGF receptor, the “IC50, inhibits binding of 125I-IGF-II (type 1 IGF receptor)” value turned out to be 0.21 µg/mL. For the same substance, the “affinity for the type 2 IGF receptor versus native IGF-II” value in the assay with type 2 IGF receptor was “comparable to native IGF-II”. Besides, the “IC50, inhibits binding of 125I-IGF-II (type 2 IGF receptor)” value with type 2 IGF receptor (setting [1]) worked out at 0.06 µg/mL; with type 2 IGF receptor (secreted material), 0.03 µg/mL. Further, the entries for the “IC50, inhibits binding of 125I-insulin (insulin receptor)” value with insulin receptor (setting [1]) and with insulin receptor (secreted material) were 1.3 µg/mL and 1.6 µg/mL, respectively.

For “wild-type refolded material: wild-type IGF-II made by the HRP fusion route and refolded [reference compound]”, in the assay with type 1 IGF receptor, the “IC50, inhibits binding of 125I-IGF-II (type 1 IGF receptor)” value is 0.1 µg/mL. In addition, the “IC50, inhibits binding of 125I-IGF-II (type 2 IGF receptor)” value in the assay with type 2 IGF receptor (setting [1]) came out at 0.03 µg/mL. The “IC50, inhibits binding of 125I-insulin (insulin receptor)” value in the assay with insulin receptor (setting [1]) was 0.16 µg/mL.
